This test has as its target ICAM-1 R13G/EA (human, UniProt P05362). Kind of test: 35S-HRV14 on COS cells.

B1: human rhinovirus 14 (HRV14) (other)
chain: GAQVSTQKSGSHENQNILTNGSNQTFTVINYYKDAASTSSAGQSLSMDPSKFTEPVKDLMLKGAPALNSPNVEACGYSDRVQQITLGNSTITTQEAANAVVCYAEWPEYLPDVDASDVNKTSKPDTSVCRFYTLDSKTWTTGSKGWCWKLPDALKDMGVFGQNMFFHSLGRSGYTVHVQCNATKFHSGCLLVVVIPEHQLASHEGGNVSVKYTFTHPGERGIDLSSANEVGGPVKDVIYNMNGTLLGNLLIFPHQFINLRTNNTATIVIPYINSVPIDSMTRHNNVSLMVIPIAPLTVPTGATPSLPITVTIAPMCTEFSGIRSKSIVPQGLPTTTLPGSGQFLTTDDRQSPSALPNYEPTPRIHIPGKVHNLLEIIQVDTLIPMNNTHTKDEVNSYLIPLNANRQNEQVFGTNLFIGDGVFKTTLLGEIVQYYTHWSGSLRFSLMYTGPALSSAKLILAYTPPGARGPQDRREAMLGTHVVWDIGLQSTIVMTIPWTSGVQFRYTDPDTYTSAGFLSCWYQTSLILPPETTGQVYLLSFISACPDFKLRLMKDTQTISQTVALTEGLGDELEEVIVEKTKQTVASISSGPKHTQKVPILTANETGATMPVLPSDSIETRTTYMHFNGSETDVECFLGRAACVHVTEIQNKDATGIDNHREAKLFNDWKINLSSLVQLRKKLELFTYVRFDSEYTILATASQPDSANYSSNLVVQAMYVPPGAPNPKEWDDYTWQSASNPSVFFKVGDTSRFSVPYVGLASAYNCFYDGYSHDDAETQYGITVLNHMGSMAFRIVNEHDEHKTLVKIRVYHRAKHVEAWIPRAPRALPYTSIGRTNYPKNTEPVIKKRKGDIKSY
modifications: [35S]-Met labeled
For the molecule B1, the “HRV Binding %” value is 3 % of wild type.

The values above are taken from patent publication US20090035321A1, “Intercellular adhesion molecules and their binding ligands” (Boehringer Ingelheim Pharmaceuticals, Inc., published 2009).
